Experimental data: article PMC7618375 (2024)

Target: SETDB1 peptide trimethylated at K1178 (human (by the printed UniProt entry), UniProt Q15047, trimethyl-lysine at 1178)
Test: ITC

- Kd: > 80 µM
B1: MPP8 chromodomain (CD, residues 55-116) (domain or fragment)
chain: GEDVFEVEKILDMKTEGGKVLYKVRWKGYTSDDDTWEPEIHLEDCKEVLLEFRKKIAENKAK
